Reference: US20150344570A1 (published 2015)

B1: GpH7-A5/GpH7-B3 variant D270_07I/GpL16-k0 (antibody, human IgG1, kappa)
heavy 1: not shown
heavy 2: not shown
light: DIVMTQSPLSLPVTPGEPASISCQASESLVHSNRNTYLHWYLQKPGQSPQLLIYKVSNRFSGVPDRFSGSGSGTDFTLKISRVEAEDVGVYYCSQNTHVPPTFGQGTKVEIERTVAAPSVFIFPPSDEQLKSGTASVVCLLNNFYPREAKVQWKVDNALQSGNSQESVTEQDSKDSTYSLSSTLTLSKADYEKHKVYACEVTHQGLSSPVTKSFNRGEC
notes: change in the GpH7-B3 H chain only; also called He Ab
B2: GpH7-A5/GpH7-B3 variant D265_03V/GpL16-k0 (antibody, human IgG1, kappa)
heavy 1: not shown
heavy 2: not shown
light: B1 light
notes: He Ab; IgG1, mutation in one H chain
B3: GpH7-A5/GpH7-B3 variant D265_13S/GpL16-k0 (antibody, human IgG1, kappa)
heavy 1: not shown
heavy 2: not shown
light: B1 light
notes: as for B2
B4: GpH7-A5/GpH7-B3 variant D265_20W/GpL16-k0 (antibody, human IgG1, kappa)
heavy 1: not shown
heavy 2: not shown
light: B1 light
notes: as for B2
B5: GpH7-A5/GpH7-B3 variant D270_02A/GpL16-k0 (antibody, human IgG1, kappa)
heavy 1: not shown
heavy 2: not shown
light: B1 light
notes: as for B1
B6: GpH7-A5/GpH7-B3 variant D265_11K/GpL16-k0 (antibody, human IgG1, kappa)
heavy 1: not shown
heavy 2: not shown
light: B1 light
notes: as for B2
B7: GpH7-A5/GpH7-B3 variant V266_04F/GpL16-k0 (antibody, human IgG1, kappa)
heavy 1: not shown
heavy 2: not shown
light: B1 light
notes: as for B2
B8: GpH7-A5/GpH7-B3 variant D265_07I/GpL16-k0 (antibody, human IgG1, kappa)
heavy 1: not shown
heavy 2: not shown
light: B1 light
notes: as for B2
B9: GpH7-A5/GpH7-B3 variant V266_10E/GpL16-k0 (antibody, human IgG1, kappa)
heavy 1: not shown
heavy 2: not shown
light: B1 light
notes: as for B2
B10: GpH7-A5/GpH7-B3 variant S239_20W/GpL16-k0 (antibody, human IgG1, kappa)
heavy 1: not shown
heavy 2: not shown
light: B1 light
notes: as for B2
B11: GpH7-A5/GpH7-B3 variant V266_13S/GpL16-k0 (antibody, human IgG1, kappa)
heavy 1: not shown
heavy 2: not shown
light: B1 light
notes: as for B2
B12: GpH7-A5/GpH7-B3 variant D265_04F/GpL16-k0 (antibody, human IgG1, kappa)
heavy 1: not shown
heavy 2: not shown
light: B1 light
notes: as for B2
B13: GpH7-A5/GpH7-B3 variant D265_06M/GpL16-k0 (antibody, human IgG1, kappa)
heavy 1: not shown
heavy 2: not shown
light: B1 light
notes: as for B2
B14: GpH7-A5/GpH7-B3 variant D270_08L/GpL16-k0 (antibody, human IgG1, kappa)
heavy 1: not shown
heavy 2: not shown
light: B1 light
notes: as for B1
B15: GpH7-A5/GpH7-B3 variant D265_16H/GpL16-k0 (antibody, human IgG1, kappa)
heavy 1: not shown
heavy 2: not shown
light: B1 light
notes: as for B2
B16: GpH7-A5/GpH7-B3 variant D265_12R/GpL16-k0 (antibody, human IgG1, kappa)
heavy 1: not shown
heavy 2: not shown
light: B1 light
notes: as for B2
B17: GpH7-A5/GpH7-B3 variant D265_10E/GpL16-k0 (antibody, human IgG1, kappa)
heavy 1: not shown
heavy 2: not shown
light: B1 light
notes: as for B2
B18: GpH7-A5/GpH7-B3 variant V266_11K/GpL16-k0 (antibody, human IgG1, kappa)
heavy 1: not shown
heavy 2: not shown
light: B1 light
notes: as for B2

Columns and labels:
[1] = target: T1, FcγRIa extracellular domain with C-terminal His tag (human, UniProt P12314 16-292); assay: SPR, binding relative to GpH7-A5/GpH7-B3/GpL16-k0 = 100
T1 construct: extracellular domain; soluble analyte in Biacore; also called FcgRI; not shown: His tag at the C terminus
T1 sequence (P12314 16-292): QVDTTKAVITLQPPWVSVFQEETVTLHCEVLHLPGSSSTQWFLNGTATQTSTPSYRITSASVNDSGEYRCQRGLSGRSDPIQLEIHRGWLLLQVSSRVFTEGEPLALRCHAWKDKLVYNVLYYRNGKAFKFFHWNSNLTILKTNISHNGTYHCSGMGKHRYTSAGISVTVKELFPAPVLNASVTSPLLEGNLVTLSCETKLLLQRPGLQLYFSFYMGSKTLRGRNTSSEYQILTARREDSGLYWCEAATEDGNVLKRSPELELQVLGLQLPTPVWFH

[2] = target: T2, FcγRIIb extracellular domain with C-terminal His tag (human, UniProt P31994 43-217); assay: as above
T2 construct: extracellular domain; soluble analyte in Biacore; also called FcgRIIb; not shown: His tag at the C terminus
T2 sequence (looked up): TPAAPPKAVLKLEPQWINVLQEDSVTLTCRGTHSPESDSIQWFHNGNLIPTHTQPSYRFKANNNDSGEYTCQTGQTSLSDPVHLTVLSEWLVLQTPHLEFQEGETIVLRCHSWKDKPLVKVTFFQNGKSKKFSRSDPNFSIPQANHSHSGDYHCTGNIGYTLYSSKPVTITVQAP

[3] = target: T1, FcγRIa extracellular domain with …; assay: SPR; He/Con_1a divided by He/Con_2b (FcγRIa against FcγRIIb)
Description: The heterodimerized antibodies He Abs in which one of the H chains was introduced with an alteration were assayed for their binding activities to each activating FcγR and inhibitory FcγR according to the method described in Example 4. […] The activating FcγRs in FIGS. 26, 27, 28, and 29 are FcγRIa, FcγRIIa (R), FcγRIIa (H), and FcγRIIIa, respectively.
Analysis of interaction between objective antibody and the FcγR was carried out using Biacore T100 (GE Healthcare). HBS-EP+ (GE Healthcare) was used as the running buffer, and the measurement temperature was set to 25° C. Chips produced by immobilizing the antigen peptide by the amine coupling method to a Series S Sencor Chip CM5 (GE Healthcare), or alternatively, chips produced by allowing preliminarily biotinylated antigen peptides to interact with and immobilize onto a Series S Sensor Chip SA (certified) (GE Healthcare) were used. Antibodies of interest were captured onto an antigen peptide-immobilized chip, and allowed to interact to each FcγR diluted with running buffer. To regenerate and repeatedly use the chip, the antibodies captured on the chip were washed off by reacting 10 mM glycine-HCl, pH 1.5.

[4] = target: T3, FcγRIa extracellular domain with C-terminal His tag (human, UniProt P12314 16-292); assay: SPR (Biacore); He/Con_1a divided by He/Con_2b (FcγRIIb as reference)
T3 construct: extracellular domain; expressed in FreeStyle293 cells; analyte in Biacore; also called FcgRI; 1a
T3 sequence (P12314 16-292): as the sequence (P12314 16-292) above

[5] = target: T3, FcγRIa extracellular domain with …; assay: SPR (Biacore), captured antibody, FcγR as analyte; relative binding
[6] = target: T4, FcγRIIb extracellular domain with C-terminal His tag (human, UniProt P31994 43-217); assay: as above
T4 construct: extracellular domain; expressed in FreeStyle293 cells; analyte in Biacore; also called FcgRIIb; 2b
T4 sequence (looked up): T2 sequence (looked up)

Binder | He/Con_1a [1] | He/Con_2b [2] | He_1a/2b (Ia/IIb) [3] [ratio] | He_1a/2b (Ia/IIb) [4] [ratio] | He/Con_1a [5] | He/Con_2b [6]
B1 | 74.6 % of control | 41.5 % of control | 1.8 |  |  | 
B2 |  |  |  | 17.3 | 55.7 % of HeCon Ab (GpH7-A5/GpH7-B3/GpL16-k0 = 100) | 3.2 % of HeCon Ab (GpH7-A5/GpH7-B3/GpL16-k0 = 100)
B3 |  |  |  | 6.07 | 68.7 % of HeCon Ab (GpH7-A5/GpH7-B3/GpL16-k0 = 100) | 11.3 % of HeCon Ab (GpH7-A5/GpH7-B3/GpL16-k0 = 100)
B4 |  |  |  | 45.6 | 51.5 % of HeCon Ab (GpH7-A5/GpH7-B3/GpL16-k0 = 100) | 1.1 % of HeCon Ab (GpH7-A5/GpH7-B3/GpL16-k0 = 100)
B5 | 71.5 % of control | 48.3 % of control | 1.48 |  |  | 
B6 |  |  |  | 2.9 | 43.2 % of HeCon Ab (GpH7-A5/GpH7-B3/GpL16-k0 = 100) | 14.9 % of HeCon Ab (GpH7-A5/GpH7-B3/GpL16-k0 = 100)
B7 |  |  |  | 1.68 | 96.7 % of HeCon Ab (GpH7-A5/GpH7-B3/GpL16-k0 = 100) | 57.6 % of HeCon Ab (GpH7-A5/GpH7-B3/GpL16-k0 = 100)
B8 |  |  |  | 41.2 | 54.4 % of HeCon Ab (GpH7-A5/GpH7-B3/GpL16-k0 = 100) | 1.3 % of HeCon Ab (GpH7-A5/GpH7-B3/GpL16-k0 = 100)
B9 |  |  |  | 5.37 | 81.9 % of HeCon Ab (GpH7-A5/GpH7-B3/GpL16-k0 = 100) | 15.2 % of HeCon Ab (GpH7-A5/GpH7-B3/GpL16-k0 = 100)
B10 |  |  |  | 2.06 | 92.7 % of HeCon Ab (GpH7-A5/GpH7-B3/GpL16-k0 = 100) | 45.1 % of HeCon Ab (GpH7-A5/GpH7-B3/GpL16-k0 = 100)
B11 |  |  |  | 1.67 | 90.6 % of HeCon Ab (GpH7-A5/GpH7-B3/GpL16-k0 = 100) | 54.4 % of HeCon Ab (GpH7-A5/GpH7-B3/GpL16-k0 = 100)
B12 |  |  |  | 16.8 | 53 % of HeCon Ab (GpH7-A5/GpH7-B3/GpL16-k0 = 100) | 3.2 % of HeCon Ab (GpH7-A5/GpH7-B3/GpL16-k0 = 100)
B13 |  |  |  | 7.57 | 75.7 % of HeCon Ab (GpH7-A5/GpH7-B3/GpL16-k0 = 100) | 10 % of HeCon Ab (GpH7-A5/GpH7-B3/GpL16-k0 = 100)
B14 | 73.5 % of control | 53.6 % of control | 1.37 |  |  | 
B15 |  |  |  | 2.23 | 85.4 % of HeCon Ab (GpH7-A5/GpH7-B3/GpL16-k0 = 100) | 38.3 % of HeCon Ab (GpH7-A5/GpH7-B3/GpL16-k0 = 100)
B16 |  |  |  | 2.96 | 44.3 % of HeCon Ab (GpH7-A5/GpH7-B3/GpL16-k0 = 100) | 15 % of HeCon Ab (GpH7-A5/GpH7-B3/GpL16-k0 = 100)
B17 |  |  |  | 2.66 | 101 % of HeCon Ab (GpH7-A5/GpH7-B3/GpL16-k0 = 100) | 38.2 % of HeCon Ab (GpH7-A5/GpH7-B3/GpL16-k0 = 100)
B18 |  |  |  | 63.5 | 64.4 % of HeCon Ab (GpH7-A5/GpH7-B3/GpL16-k0 = 100) | 1 % of HeCon Ab (GpH7-A5/GpH7-B3/GpL16-k0 = 100)
